According to patent US20260167699A1 (Chugai, published 2026):
Substitutions are numbered along the chain they refer to.

T1: FcγRIIa(H) extracellular domain, His-tagged (human, UniProt P12318 34-217)
T1 construct: extracellular domain; also called 2aH
T1 sequence: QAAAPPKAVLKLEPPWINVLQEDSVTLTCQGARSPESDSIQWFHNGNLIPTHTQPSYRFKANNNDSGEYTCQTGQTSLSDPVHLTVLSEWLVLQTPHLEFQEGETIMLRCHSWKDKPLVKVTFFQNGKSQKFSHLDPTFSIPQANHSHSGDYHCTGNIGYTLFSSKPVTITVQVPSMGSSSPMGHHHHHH

T2: FcγRIIa(R) extracellular domain, His-tagged (human, UniProt P12318 34-217)
T2 construct: extracellular domain; also called 2aR
T2 sequence: T1 sequence with H134R

T3: FcγRIIb extracellular domain, His-tagged (human, UniProt P31994 43-217)
T3 construct: extracellular domain; also called 2b
T3 sequence: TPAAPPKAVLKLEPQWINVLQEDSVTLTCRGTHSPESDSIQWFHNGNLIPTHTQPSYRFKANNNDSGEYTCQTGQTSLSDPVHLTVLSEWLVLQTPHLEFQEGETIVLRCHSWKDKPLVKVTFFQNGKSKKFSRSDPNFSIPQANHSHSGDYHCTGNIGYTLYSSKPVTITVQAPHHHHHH

B1: GpH7-A5/GpH7-B3 variant D270_08L/GpL16-k0 (antibody, human IgG1, kappa)
heavy 1: not shown
heavy 2: not shown
light: DIVMTQSPLSLPVTPGEPASISCQASESLVHSNRNTYLHWYLQKPGQSPQLLIYKVSNRFSGVPDRFSGSGSGTDFTLKISRVEAEDVGVYYCSQNTHVPPTFGQGTKVEIERTVAAPSVFIFPPSDEQLKSGTASVVCLLNNFYPREAKVQWKVDNALQSGNSQESVTEQDSKDSTYSLSSTLTLSKADYEKHKVYACEVTHQGLSSPVTKSFNRGEC
B2: GpH7-A5/GpH7-B3 variant E269_01G/GpL16-k0 (antibody, human IgG1, kappa)
heavy 1: not shown
heavy 2: not shown
light: B1 light
B3: GpH7-A5/GpH7-B3 variant E269_02A/GpL16-k0 (antibody, human IgG1, kappa)
heavy 1: not shown
heavy 2: not shown
light: B1 light
B4: GpH7-A5/GpH7-B3 variant E269_14T/GpL16-k0 (antibody, human IgG1, kappa)
heavy 1: not shown
heavy 2: not shown
light: B1 light
B5: GpH7-A5/GpH7-B3 variant G236_02A/GpL16-k0 (antibody, human IgG1, kappa)
heavy 1: not shown
heavy 2: not shown
light: B1 light
B6: GpH7-A5/GpH7-B3 variant E269_09D/GpL16-k0 (antibody, human IgG1, kappa)
heavy 1: not shown
heavy 2: not shown
light: B1 light
B7: GpH7-A5/GpH7-B3 variant D270_14T/GpL16-k0 (antibody, human IgG1, kappa)
heavy 1: not shown
heavy 2: not shown
light: B1 light
B8: GpH7-A5/GpH7-B3 variant E269_13S/GpL16-k0 (antibody, human IgG1, kappa)
heavy 1: not shown
heavy 2: not shown
light: B1 light
B9: GpH7-A5/GpH7-B3 variant G236_09D/GpL16-k0 (antibody, human IgG1, kappa)
heavy 1: not shown
heavy 2: not shown
light: B1 light
B10: GpH7-A5/GpH7-B3 variant G236_10E/GpL16-k0 (antibody, human IgG1, kappa)
heavy 1: not shown
heavy 2: not shown
light: B1 light
B11: GpH7-A5/GpH7-B3 variant D270_10E/GpL16-k0 (antibody, human IgG1, kappa)
heavy 1: not shown
heavy 2: not shown
light: B1 light

Assays:
Experiment in all cases: SPR, vs GpH7-A5/GpH7-B3/GpL16-k0 =100
[1] = molecular target: T4, FcγRIIIa extracellular domain, His-tagged (human, UniProt P08637 17-208)
T4 construct: extracellular domain; also called 3a
T4 sequence (P08637 other isoform, or with tags, fused parts or gaps): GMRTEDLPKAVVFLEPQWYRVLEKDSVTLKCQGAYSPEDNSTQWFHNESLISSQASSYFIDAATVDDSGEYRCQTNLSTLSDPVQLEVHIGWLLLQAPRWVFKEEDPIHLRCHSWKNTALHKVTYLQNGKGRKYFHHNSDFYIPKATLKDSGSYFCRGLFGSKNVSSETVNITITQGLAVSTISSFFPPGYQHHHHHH

[2] = molecular target: T1, FcγRIIa(H) extracellular domain, …
[3] = molecular target: T2, FcγRIIa(R) extracellular domain, …
[4] = molecular target: T3, FcγRIIb extracellular domain, His-tagged
[5] = molecular target: T5, FcγRIa extracellular domain, His-tagged (human, UniProt P12314 16-292)
T5 construct: extracellular domain; also called 1a
T5 sequence (P12314 other isoform, or with tags, fused parts or gaps): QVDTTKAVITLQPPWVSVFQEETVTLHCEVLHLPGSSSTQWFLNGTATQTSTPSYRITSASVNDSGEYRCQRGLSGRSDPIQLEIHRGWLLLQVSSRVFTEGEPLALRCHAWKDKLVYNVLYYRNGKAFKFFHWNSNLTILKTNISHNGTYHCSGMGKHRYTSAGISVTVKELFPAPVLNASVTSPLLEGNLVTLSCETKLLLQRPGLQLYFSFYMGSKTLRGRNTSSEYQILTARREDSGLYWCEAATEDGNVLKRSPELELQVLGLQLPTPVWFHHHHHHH

Binder	He/Con 3a [1]	He/Con 2aH [2]	He/Con 2aR [3]	He/Con 2b [4]	He/Con 1a [5]
B1	65.1 % of control	81.8 % of control	62.8 % of control	50.8 % of control	93.2 % of control
B2	61.6 % of control	72.3 % of control	70.3 % of control	54.1 % of control	101 % of control
B3	68 % of control	78.7 % of control	70.2 % of control	52.4 % of control	101 % of control
B4	59.7 % of control	70.3 % of control	71 % of control	53.2 % of control	102 % of control
B5	77 % of control	145 % of control	145 % of control	101 % of control	99.1 % of control
B6	106 % of control	105 % of control	113 % of control	110 % of control	103 % of control
B7	55.4 % of control	81.3 % of control	72.2 % of control	54.8 % of control	89.5 % of control
B8	62.1 % of control	70.7 % of control	65.8 % of control	50.2 % of control	99.8 % of control
B9	66.2 % of control	93.5 % of control	105 % of control	174 % of control	95.5 % of control
B10	65.8 % of control	116 % of control	124 % of control	115 % of control	92.6 % of control
B11	112 % of control	111 % of control	85.7 % of control	72.5 % of control	104 % of control
